Data set [1] can be described thus: Activity testing in KODA production (HPLC quantitation of KODA). Format: biochemical. Particulars: 0.32 ng protein in 20 μl 9-HPOT reaction solution, room temperature, 10 minutes; relative to AtAOS. From the text:
The allene oxide synthase activity can be determined by allowing a 9-product specific lipoxygenase to act on α-linolenic acid, and then adding a given amount of allene oxide synthase to the enzymatic reaction product 9-hydroperoxylinolenic acid (9-HPOT) to produce KODA, and the KODA produced is quantitatively analyzed by HPLC.
After the SHLpAOS sequence integrated into the pTAC-2 vector by the above method was cleaved with NcoI and XhoI, it was introduced into a commercially available vector pET41a (Novagen) for protein expression to obtain a plasmid pET41a/SHLpAOS for expression of Lemna paucicostata allene oxide synthase. This plasmid was transformed into Escherichia coli strain BL21(DE3) (Novagen). Then, it was inoculated in 3 ml of the LB medium containing 30 mg/l kanamycin, and cultured under shaking overnight at 37° C. and 250 rpm. 100 μl of this culture liquid was added to 10 ml of the LB medium containing the same concentration of kanamycin and 1% glucose and cultured under shaking at 37° C. and 250 rpm for 3-4 hours. […]
In the activity testing in KODA production, 5 mM linolenic acid solution (dissolved in 0.1% Tween 80 solution) was prepared, and reacted with lipoxygenase extracted from rice germ at pH 7 at room temperature for 10 minutes to synthesize 9-hydroperoxylinolenic acid (9-HPOT) solution. […] 10 μl of this solution was analyzed by HPLC. […]

Data set [2] can be described thus: Kinetic analysis of allene oxide synthase (decrease in absorbance at 234 nm, Hanes-Woolf plot). It is filed as biochemical. Particulars: for Kcat / Km / Vmax: substrate 9-HPOT 5-53 μM, 40 mM phosphate buffer pH 7.5, 1% EtOH, 25° C. The procedure: SHLpAOS obtained from Lemna paucicostata SH strain was subjected to kinetic analysis. Using a reaction mixture comprising 40 mM phosphate buffer (pH 7.5) and 1% EtOH, the reaction was carried out at a temperature of 25° C. The substrate 9-HPOT was tested at the substrate concentration of 5-53 μM. The substrate 9-HOPT was added as an EtOH solution, and the final concentration of EtOH was adjusted to 1%. 100 μl of the reaction mixture was added into a cuvette, and a decrease in absorbance at 234 nm was scanned over time for 1 minute at an interval of 2 seconds using the SmartSpec Plus Spectrophotometer (Bio-Rad). From the A234 determined, the amount of the reaction product was calculated (e=25,000). Kinetic parameters were determined using the Hanes-Woolf plot ([S]/v versus [S] plot). […] It is believed that compared to AtAOS, SHLpAOS is a very useful AOS in the practical production of KODA.

This note sets out measurements from patent US20130034894A1, “NOVEL ALLENE OXIDE SYNTHASE DERIVED FROM LEMNA PAUCICOSTATA” (priority 2010, published 2013).

B1: SHLpAOS: allene oxide synthase obtained from the Lemna paucicostata SH strain, expressed in Escherichia coli (SEQ ID NO: 2, 480 aa) (protein, listed as Lemna paucicostata)
chain: MSVSQSDDKAALVPQKTIPGSYGIPFITPLKDRLDFFSNEYQFFQSRVESYGSTIVRLNAPPGPFMAKNPQVIAILDGKSFPVLFDTSKVEKKNIFTGTYMPSTALTGGYRVCAYLDPSEPNHTKIKQLLLNILFNRKDHVIPEFHRAYEKLFDDMDAEIAKSGKFVFNDHNDGAAFEFLGRLFFGVSPSETELGAGGVKDANLWLFSQLCPLMTLGFLPKLLEDLLLHTFPLPPFLFKGKYQAIYKYISSVATDALTMAENLGLSREEAAHNLLFAVCFNSLGGVKVLFPGILRYIAQAGKNLQASLVSEVRSAVSSTGGELTIEALEKMPLTKSVVYESLRLDPPVKYQYGVVKKDMVIESHDRSYEVKAGETLFGYQPFATRDKKIFGPDADNFVAERFIGEEGAKVLRFVVWSNGPETTDPTPVDKQCPGKNLVVLISRLLVAEFFLRYDFFDAEIGAVPLAVKTTITSLTKATTR
As to B1, in data set [1], the “Activity in KODA production, higher than the AtAOS protein” value is roughly 7 fold. In addition, in data set [2] (relative to AtAOS), the “Affinity for 9-HPOT, higher than AtAOS” value is “about 5 fold”; the “Kcat value, higher than in AtAOS” value is “about 2.8 fold”; the “Kcat/Kn value, higher than in AtAOS” value is “about 14 fold”; the “Vmax, higher than AtAOS” value is “about 2.8 fold”. Besides, in data set [2], the Kcat was 709.2 ± 44.3 s⁻¹, the Km stood at 7.1 ± 1.9 µM and the Vmax turned out to be 4.7 ± 0.3 µmol/s.

B2: AtAOS: A. thaliana-derived allene oxide synthase (AOS) protein used as the control, expressed in Escherichia coli (protein, UniProt Q96242 34-518, looked up)
Allene oxide synthase, …: SGSETPDLTVATRTGSKDLPIRNIPGNYGLPIVGPIKDRWDYFYDQGAEEFFKSRIRKYNSTVYRVNMPPGAFIAENPQVVALLDGKSFPVLFDVDKVEKKDLFTGTYMPSTELTGGYRILSYLDPSEPKHEKLKNLLFFLLKSSRNRIFPEFQATYSELFDSLEKELSLKGKADFGGSSDGTAFNFLARAFYGTNPADTKLKADAPGLITKWVLFNLHPLLSIGLPRVIEEPLIHTFSLPPALVKSDYQRLYEFFLESAGEILVEADKLGISREEATHNLLFATCFNTWGGMKILFPNMVKRIGRAGHQVHNRLAEEIRSVIKSNGGELTMGAIEKMELTKSVVYECLRFEPPVTAQYGRAKKDLVIESHDAAFKVKAGEMLYGYQPLATRDPKIFDRADEFVPERFVGEEGEKLLRHVLWSNGPETETPTVGNKQCAGKDFVVLVARLFVIEIFRRYDSFDIEVGTSPLGSSVNFSSLRKASF
B2: in data set [2], the Kcat was determined as 255.5 ± 4.8 s⁻¹, the Km was found to be 36.3 ± 1.3 µM and the Vmax turned out to be 1.7 ± 0.03 µmol/s.
